B1: FBXO3 (parent)
chain: GGFPIIRDQIFRYVHDPECVATTG
B2: CCDC70 (parent)
chain: FSFKVSRWMGLACFRSLAASSPSI

Variants of: B1
Experiment: protein stability index of a GFP-peptide fusion (GPS, HEK-293T) (PSI 1-6); higher = more stable
Conditions: c terminus: a fixed tail appended
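Note: lentivirally expressed fusions sorted by FACS into six bins by GFP to DsRed ratio, PSI derived from sequencing read proportions per bin multiplied by bin number.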

Protein stability index: each site, then its substitutions
F3: C 2.14, A 3.13, P 2.76, S 2.59, M 2.1, Q 2.58, N 2.78, V 2.38, K 2.87, D 3.2, L 1.94, W 2.28, G 2.55, I 2.29, R 2.59, Y 1.57, H 2.21, E 2.9, T 3.17
G2: P 2.38, Q 1.25, R 2.41, D 3.02, N 2.28, L 1.86, A 1.82, K 2.54, Y 1.78, M 1.68, S 1.76, H 1.76, W 2.87, V 2.5, F 2.03, T 2.19, I 2.2, E 1.97, C 1.51
G1: E 2.6, K 2.15, A 2.29, W 1.73, L 1.64, I 2.05, H 2.02, T 2.74, D 2.65, V 1.79, F 1.55, Y 1.55, M 1.64, R 2.16, P 2.51, C 1.21, S 2.01, N 2.4, Q 2.15
P4: C 2.23, E 2.93, V 1.29, S 2.03, D 2.72, Y 2.75, A 1.66, H 2.02, N 2.15, Q 1.75, T 1.67, L 2.39, I 2.08, G 2.33, F 2.3, K 2.54, R 2.21
I5: C 1.86, A 2.39

Variants of: B2
Experiment: as above
Conditions: c terminus: a fixed tail appended

Protein stability index: each site, then its substitutions
S23: D 3.88, N 3.56, F 3.09, Y 2.1, C 2.6, L 4.22, K 2.68, V 2.53, T 2.67, H 1.65, Q 3.59
M9: C 3.07, P 1.36, A 2.28, E 2.5, L 4.57, H 2.8, F 2.95, N 2.15, Y 3.2, I 4.43, D 4.03, K 2.21
R7: M 2.33, I 4.23, Y 2.52, Q 2.19, S 2.14, V 3.67, W 3.02, K 2.3, N 2.53
F14: S 1.61, L 2, W 1.7, T 1.31, N 2.56, P 3.6, R 4.52, I 1.54, K 1.93, D 2.84, Q 1.72, G 3.57, A 3.51, M 2.21, V 3.5
A19: E 3.77, R 3.39, H 2.03, Q 2.32, Y 3.36, P 2.09, T 3.93, V 3.78, D 2.88, M 3.27, L 3.58, W 3.71, C 1.8, G 2.19, N 3.2, S 3.28, F 1.36
L17: V 2.84, Q 1.83, I 1.86, R 2.19, G 3.62, T 2.3, K 2.45, P 3.88, H 2.29, Y 2.69, S 1.87, A 1.7, N 2.73, M 2.77
R15: Q 5.05, E 3.26, M 3.86, Y 2.87, T 2.79, D 2.71, I 2.04, V 3.28, A 3.76, S 1.7, W 4.5, L 3.13, H 3.52
G10: M 4.54, K 3.17, Y 4.12, N 3.79, P 4.98, V 2.36, E 3.35, C 1.55, A 3.75, W 3.9, D 3.79, S 2.98, F 1.86, R 2.37
A18: D 2.71, H 2.37, R 2.21, F 2.74, V 2.58, S 2.69, M 2.78, E 2.71, K 4.48, W 1.96, L 2.9, Y 3.5, T 2.82
W8: S 2.08, D 1.76, R 1.81, Q 3.47, E 1.29, V 3.21, H 2.82, C 2.07, F 4.12, Y 3.02, K 2.29, M 1.77, L 3.27, G 3.55, P 2.4, T 2.58, A 1.12, I 2.9
S21: G 2.62, Q 2.23, Y 1.82, M 3.02, D 2.8, I 3.37, N 2.04, W 2.85, R 1.75, E 3.18, P 3.96, L 3.55, C 2.05, F 3.31, A 1.99, K 2.57
I24: Y 3.49, F 2.56, E 1.44, K 2.12, Q 2.38, N 2.33, S 2.06, A 2.67, L 3, G 2.36, D 2.72, P 1.41, C 1.94, W 3.1, M 2.23
P22: Y 2.86, F 2.51, A 1.68, E 3.78, R 2.46, D 2.97, C 2.36, V 2.95, K 2.38, T 3.71, W 3.4, M 3.36, H 1.85, N 3.22, Q 3.8
S16: D 2.86, P 3.05, C 2.56, Q 2.42, Y 3.27, F 2.55, N 3.94, A 3.04, W 2.79, I 1.98, K 2.18, E 4.34, G 3.37, H 3.13, L 2.13, R 3.88
A12: Y 2.87, P 2.56, Q 3.81, V 1.98, I 3.43, E 2.75, M 3.25, R 1.49, S 2.02, C 3.26, L 2, K 3.62, D 2.87, F 2.57, H 1.57
S20: Y 2.74, N 2.46, T 2.31, L 3.27, M 2.2, A 3.7, K 3.32, P 1.35, F 4.72, I 3.96, W 3.37, V 2.6, D 3.1, G 2.51, R 4.31, H 1.81, C 3.42
L11: G 3.16, P 2.72, N 2.65, H 5.37, S 3.51, E 1.76, R 4.02, T 3.12, F 3.35, A 3.24, I 3.88, D 2.84, M 3.73, Y 3.04
C13: D 2.05, I 2.56, S 2.66, W 2.35, H 2.36, R 3.4, Y 3.24, P 1.82, V 2.52, G 2.27, F 3.96, T 1.63, K 1.46, L 3.57
